From patent US20220135687A1 (NANJING LEGEND BIOTECH, published 2022) come the findings set out here.

By EC50 is commonly meant the concentration at which the effect is half-maximal. Lower therefore signals higher potency in that assay. What is called Kd is a measure of binding affinity in units of concentration. Read a low Kd as a tighter complex. A word on the koff: it is the first-order rate constant of dissociation. A high value points to fast dissociation. What is called kon is a measure of how fast the partners come together. The low end stands for slow association, the high end for fast association. Broadly, the IC50 is the concentration at which inhibition is half-maximal. Low readings indicate inhibition by little substance, high ones a need for much substance.

Sequences and labels used below:
B1: 29A8_VH1-VL1.M1 (antibody, human IgG1, kappa, N297A)
heavy: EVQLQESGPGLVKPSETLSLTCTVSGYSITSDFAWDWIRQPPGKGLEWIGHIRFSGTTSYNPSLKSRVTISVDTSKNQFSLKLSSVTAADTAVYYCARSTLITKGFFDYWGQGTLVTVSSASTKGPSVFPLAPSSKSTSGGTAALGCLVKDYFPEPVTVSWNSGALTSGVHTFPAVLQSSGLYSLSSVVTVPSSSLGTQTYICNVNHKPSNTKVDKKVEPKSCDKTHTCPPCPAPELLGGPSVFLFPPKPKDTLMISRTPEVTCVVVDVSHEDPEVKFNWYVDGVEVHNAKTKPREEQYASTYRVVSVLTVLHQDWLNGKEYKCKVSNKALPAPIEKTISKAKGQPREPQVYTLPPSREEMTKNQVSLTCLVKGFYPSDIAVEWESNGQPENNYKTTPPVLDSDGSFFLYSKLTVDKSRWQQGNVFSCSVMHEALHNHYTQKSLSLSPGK
light: DIQMTQSPSSLSASVGDRVTITCRASQDVSPAVAWYQQKPGKAPKLLIYWASTRHTGVPSRFSGSGSGTDFTLTISSLQPEDFATYYCQQHYSTPWTFGQGTKVEIKRTVAAPSVFIFPPSDEQLKSGTASVVCLLNNFYPREAKVQWKVDNALQSGNSQESVTEQDSKDSTYSLSSTLTLSKADYEKHKVYACEVTHQGLSSPVTKSFNRGEC
notes: Humanized, hIgG1 effector-less Fc, kappa; see recheck on K24R in the .M1 light chain
B2: 29A8_VH4-VL1.M1 (antibody, human IgG1, kappa, N297A)
heavy: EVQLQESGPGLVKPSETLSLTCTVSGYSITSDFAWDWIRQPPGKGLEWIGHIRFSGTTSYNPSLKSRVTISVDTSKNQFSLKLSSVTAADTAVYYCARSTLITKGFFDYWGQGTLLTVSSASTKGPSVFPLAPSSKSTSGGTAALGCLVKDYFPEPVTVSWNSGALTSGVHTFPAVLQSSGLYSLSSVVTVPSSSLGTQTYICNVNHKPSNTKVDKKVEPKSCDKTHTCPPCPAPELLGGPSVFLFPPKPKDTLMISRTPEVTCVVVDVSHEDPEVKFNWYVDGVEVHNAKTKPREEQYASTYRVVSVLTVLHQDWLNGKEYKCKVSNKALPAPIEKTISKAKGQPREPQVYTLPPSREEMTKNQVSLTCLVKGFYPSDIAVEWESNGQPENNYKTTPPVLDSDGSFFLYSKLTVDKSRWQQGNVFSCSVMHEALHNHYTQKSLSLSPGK
light: B1 light
notes: as for B1
B3: 29A8_VH5-VL1.M1 (antibody, human IgG1, kappa, N297A, V domains shown)
VH: EVQLQESGPGLVKPSETLSLTCTVSGYSITSDFAWDWIRQPPGKGLEWIGHIRFSGTTSYNPSLKSRVTISRDTSKNQFSLKLSSVTAADTAVYYCARSTLITKGFFDYWGQGTLVTVSS
VL: DIQMTQSPSSLSASVGDRVTITCRASQDVSPAVAWYQQKPGKAPKLLIYWASTRHTGVPSRFSGSGSGTDFTLTISSLQPEDFATYYCQQHYSTPWTFGQGTKVEIKR
notes: as for B1
B4: 53C1_VH3-VL1.M1 (antibody, human IgG1, kappa, N297A, V domains shown)
VH: EVQLVQSGAEVKKPGASVKLSCKASGYIFTGYGITWVRQAPGQGLEWIGEIFPRRVNTYYSEKFKGRATLTADTSTSTAYMELRSLRSDDTAVYFCARDYDPYFALDYWGQGTTVTVSS
VL: DIQMTQSPSSLSASVGDRVTITCRASQDVSTAVDWYQQKPGKAPKLLIYSASYRYTGVPDRFSGSGSGTDFTFTISSLQPEDIATYYCQQHYSIPFTFGQGTKLEIKR
notes: as for B1
B5: 29A8_chimeric (antibody, human IgG1, kappa, N297A, V domains shown)
VH: DVQLQGSGPGLVKPSQSLSLTCTVTGYSITSDFAWDWIRQFPGNKLEWMGHIRFSGTTSYNPSLKSRISITRDTSKNQFFLQLNSVTSEDTATYYCARSTLITKGFFDYWGQGTTLTVSS
VL: DIVMTQSHKFMSTSVGGRVSITCKASQDVSPAVAWYQQKPGQSPKLLIYWASTRHTGVPDRFTGSGSGTDFTLTISSVQTEDLALYYCQQHYSTPWTFGGGTKLEIKR
notes: Human IgG1 with effector-less Fc mutations, human kappa; also called chimeric 29A8H8C7
B6: 42G2D7C3 (antibody, V domains shown)
VH: DVQLLESGPGLVKPSQSLSLTCSVTGYSITSGYYWNWIRQFPGNNLEWMGSINYDGSNDYNPSLQDRISITRDTSKNQFFLKLNSVTTEDTATYYCARRLDYWGQGTTLIVSS
VL: QIVLTQSPAIMSASPGEKVTISCSASSFINYMYWYQQKPGSSPKPWILRTSTLASGVPARFSGSGSGTSYSLTISSMEAEDAATYYCQQYHSYPLTFGAGTKLELK
notes: Mouse mAb from hybridoma culture
B7: 53C1_VH2-VL1.M1 (antibody, human IgG1, kappa, N297A, V domains shown)
VH: B4 VH with L20V, A72T
VL: B4 VL
notes: as for B1
B8: 53C1_VH3.M3-VL1.M1 (antibody, human IgG1, kappa, N297A, V domains shown)
VH: B4 VH with N57Q
VL: B4 VL
notes: Humanized, VH N57Q in the entry; hIgG1 effector-less Fc, kappa; see recheck on K24R in the .M1 light chain

Positions count from the first letter of the chain named. Names may count otherwise.

T2 sequence (G7PSE7 entry or part of it limits assumed): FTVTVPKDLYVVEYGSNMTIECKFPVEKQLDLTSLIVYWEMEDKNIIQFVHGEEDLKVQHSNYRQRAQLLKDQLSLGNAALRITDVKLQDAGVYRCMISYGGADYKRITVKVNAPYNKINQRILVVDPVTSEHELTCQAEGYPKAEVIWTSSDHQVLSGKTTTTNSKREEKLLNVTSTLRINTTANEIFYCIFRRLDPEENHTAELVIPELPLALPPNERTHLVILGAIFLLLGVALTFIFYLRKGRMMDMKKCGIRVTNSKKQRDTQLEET
T1 sequence (Q9NZQ7 19-290, one chain of several): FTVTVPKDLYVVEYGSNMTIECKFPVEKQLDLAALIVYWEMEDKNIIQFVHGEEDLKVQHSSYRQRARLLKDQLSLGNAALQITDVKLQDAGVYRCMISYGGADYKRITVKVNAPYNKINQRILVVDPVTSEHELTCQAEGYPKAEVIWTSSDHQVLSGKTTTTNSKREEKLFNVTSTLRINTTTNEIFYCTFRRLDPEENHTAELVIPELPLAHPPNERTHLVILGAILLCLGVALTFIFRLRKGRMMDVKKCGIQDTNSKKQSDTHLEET
cynomolgus PD-L1 Fc-fusion protein, sequence (G7PSE7 entry or part of it limits assumed): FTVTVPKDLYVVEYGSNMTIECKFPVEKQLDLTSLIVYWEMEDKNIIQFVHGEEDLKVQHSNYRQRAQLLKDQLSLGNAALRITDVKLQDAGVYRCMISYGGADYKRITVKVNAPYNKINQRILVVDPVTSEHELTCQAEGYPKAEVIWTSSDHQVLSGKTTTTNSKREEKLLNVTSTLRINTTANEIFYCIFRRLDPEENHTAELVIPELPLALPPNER

The first assay has as its target T1, human PD-L1 expressed on CHO-K1 cells (Genscript, Cat #M00543) (human, UniProt Q9NZQ7 19-290). Description: cell-based or functional assay.
Take B1: the “EC50, PD-L1 cell-based luciferase reporter assay” value is 2.01 nM.
On the same count and under the same terms, the value for B2 was 1.24 nM; that for B3 was 1.81 nM; that for B4 was 2.26 nM.
On the same count and under the same terms, under B5 stands 1.34 nM.

In the next assay the target is T1, human PD-L1 expressed on CHO-K1 cells …. Description: FACS, CHO-K1/human PD-L1 cells. On the procedure:
(§1) PD-L1 stable cell line binding activity assessment of 12 mouse mAbs was carried out using FACS. CHO-K1 cells expressing human PD-L1 (Genscript, Cat #M00543) were dissociated from adherent culture flasks and mixed with varying concentrations of antibodies. The antibody and cells were incubated for 30 minutes at room temperature, washed three times with FACS buffer (PBS containing 1% BSA). PE-labeled goat anti-mouse IgG (minimal x-reactivity) secondary antibody (BioLegend, Cat #405307) was added and incubated at room temperature for 15 minutes. Cells were washed again with FACS buffer and analyzed by FACSCalibur (BD Bioscience, San Jose, Calif.) and Flowjo software. Data were analyzed with Prism 6 (GraphPad Software, San Diego, Calif.) using non-linear regression, and EC₅₀ values were calculated (FIGS. 2A-2L and Table 3).
Consider B6, for which the response was half-maximal at 3.29 nM (EC50) and the “Top (best-fit value)” value was 1780.

The target is the same in a further assay. The assay can be described thus: FACS, CHO-K1/human PD-L1 cells. This is another data set of the same source. On the procedure: as §1
Human and cynomolgus PD-L1 stable cell line binding activity assessment of chimeric and humanized mAbs was carried out using FACS as described above (FIGS. 9A-9L and FIGS. 10A-10L and Tables 13 and 14).
For B1, the EC50 was 1.75 nM and the “Top (best-fit value)” value came out at 6400.
In the same order, the values of B2 are 1.05 nM and 5180.
In the same order, the values of B3 are 1.31 nM and 5100.
In the same order, the values of B4 are 2 nM and 6410.
In the case of B5, the midpoint of the response, the EC50, lay at 1.08 nM and the “Top (best-fit value)” value is 6410.

The next assay concerns the target T2, cynomolgus PD-L1 overexpressing stable cell line (cynomolgus, UniProt G7PSE7 19-290).
T2 construct: also called cynomolgus PD-L1 overexpressing cell line
Description: FACS, cynomolgus PD-L1 cell line. A general note: Flow cytometry measures light scatter and fluorescence of single cells or particles in a stream.
B1: it took 3.53 nM to reach a half-maximal effect (EC50) and the “Top (best-fit value)” value was found to be 7470.
In the same order, the values of B2 are 1.49 nM and 7820.
As to B3, the response was half-maximal at 3.07 nM (EC50) and the “Top (best-fit value)” value was determined as 7950.
In the same order, the values of B4 are 4.66 nM and 8310.
In the same order, the values of B5 are 2.77 nM and 8670.

For the next assay, the target named is T3, His-tagged PD-L1 ECD protein (ACROBiosystems) (human, UniProt Q9NZQ7 19-238).
T3 construct: Bought protein; also called PD-L1-His; PD-L1/His; not shown: His tag
T3 sequence (Q9NZQ7 19-238): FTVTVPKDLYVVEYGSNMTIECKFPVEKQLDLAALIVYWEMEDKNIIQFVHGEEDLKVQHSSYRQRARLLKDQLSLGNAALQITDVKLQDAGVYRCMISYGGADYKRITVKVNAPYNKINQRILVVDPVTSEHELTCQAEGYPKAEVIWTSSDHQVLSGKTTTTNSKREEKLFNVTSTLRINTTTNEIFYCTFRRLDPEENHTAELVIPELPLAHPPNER
Description: SPR, supernatant IgG captured, PD-L1-His analyte. (In general: Surface plasmon resonance follows binding to a sensor surface in real time, without labels.)
B5 yielded a Kd of 0.32 nM, a koff of 0.00017 s⁻¹ and a kon of 530000 M⁻¹ s⁻¹.

In a further assay the target is T3, His-tagged PD-L1 ECD protein …. Description: SPR, supernatant IgG captured, PD-L1-His analyte. The source holds these as a separate data set.
B1 gave a Kd of 1.5 nM, a koff of 0.00071 s⁻¹ and a kon of 470000 M⁻¹ s⁻¹.
In the same order, the values of B2 are 1.1 nM, 0.00063 s⁻¹ and 560000 M⁻¹ s⁻¹.
In the same order, the values of B3 are 0.76 nM, 0.00042 s⁻¹ and 550000 M⁻¹ s⁻¹.
In the same order, the values of B5 are 0.25 nM, 0.00015 s⁻¹ and 580000 M⁻¹ s⁻¹.

The target is the same in another assay. Description: SPR, supernatant IgG captured, PD-L1-His analyte. The source holds these as a separate data set.
Molecule B7 registered a Kd of 1 nM, a koff of 0.00025 s⁻¹ and a kon of 240000 M⁻¹ s⁻¹.
The molecule B4 had a dissociation constant Kd of 0.49 nM, an off-rate (koff) of 0.00015 s⁻¹ and a kon of 300000 M⁻¹ s⁻¹.
Regarding B8, binding was put at a Kd of 0.21 nM, the off-rate (koff) came to 7.3e-05 s⁻¹ and the on-rate constant (kon) amounted to 350000 M⁻¹ s⁻¹.

A further assay concerns the target cynomolgus PD-L1 Fc-fusion protein (cynomolgus, UniProt G7PSE7 19-238). Description: SPR, cyno PD-L1-Fc immobilised, antibody analyte.
Molecule B1 returned a Kd of 4 nM, a koff of 0.00043 s⁻¹ and a kon of 110000 M⁻¹ s⁻¹.
In the same order, the values of B2 are 3.3 nM, 0.00044 s⁻¹ and 130000 M⁻¹ s⁻¹.
In the same order, the values of B3 are 0.98 nM, 0.0002 s⁻¹ and 200000 M⁻¹ s⁻¹.
Regarding B4, the affinity, expressed as Kd, was 0.71 nM; the koff is 6.8e-05 s⁻¹; the kon stood at 95000 M⁻¹ s⁻¹.
B5 came in with a Kd of 0.48 nM, a dissociation rate constant (koff) of 7.3e-05 s⁻¹ and a kon of 150000 M⁻¹ s⁻¹.

The target in a further assay is T3, His-tagged PD-L1 ECD protein …. Description: SPR, IgG captured by anti-human Fc, PD-L1-His analyte. Here is the method: Briefly, capturing antibody (anti-mouse Fc antibody for the affinity measurement of mouse mAbs, or anti-human Fc antibody for the affinity measurement of chimeric and humanized mAbs, GE healthcare) was immobilized on a Biacore™ CM5 chip to approximately 7,000 RU using EDC-activated amine coupling chemistry. Antibody of interest (5 μg/ml) was captured for 60 seconds onto the sensorchip surface. His-tagged PD-L1 ECD protein (ACROBiosystems) was flowed over the sensorchip surface at a series concentrations. Flow rate was 30 μl/min in all experiments. Association and dissociation phases were 5 and 15 min, respectively. The chip was regenerated using Glycine/HCl pH 1.5. Captured antibody and antigen were removed between each cycle using 50 mM HCl in order to ensure a fresh binding surface for each concentration of antigen. The resulting sensorgrams were fit globally using a 1:1 binding model in order to calculate on- and off-rates (ka and kd, respectively), as well as affinities (KD).
B1 displayed a Kd of 1.4 nM, a dissociation rate constant (koff) of 0.0008 s⁻¹ and an association rate constant (kon) of 590000 M⁻¹ s⁻¹.
In the same order, the values of B2 are 1.1 nM, 0.00071 s⁻¹ and 630000 M⁻¹ s⁻¹.
In the same order, the values of B3 are 0.74 nM, 0.00046 s⁻¹ and 620000 M⁻¹ s⁻¹.
In the same order, the values of B4 are 0.55 nM, 0.00016 s⁻¹ and 290000 M⁻¹ s⁻¹.
On to B5, for which binding was put at a Kd of 0.3 nM, the koff is 0.00019 s⁻¹ and the kon came out at 640000 M⁻¹ s⁻¹.

Another assay deals with T1, human PD-L1 expressed on CHO-K1 cells …. The assay can be described thus: FACS competition vs biotin-PD-1-Fc on CHO-K1/human PD-L1 cells. Here is the method:
A series of diluted mouse mAbs (concentration starting from 900 nM, 3 fold dilution, 50 μl per well) were added afterwards. The mixture was incubated at 4° C. for 30 minutes, washed twice with wash buffer, followed by the addition of PEcy5/streptavidin (1 μg/ml, 150 μl/well). The plates were again incubated at 4° C. for 30 minutes before the cells in each well were analyzed by FACSCalibur (BD Bioscience, San Jose, Calif.) and Flowjo software.
Turning to B1, the half-maximal inhibitory concentration (IC50) was 0.463 nM.
B2 showed an IC50 of 0.385 nM.
Still for that read-out and setting: under B3 stands 0.545 nM; under B4, 0.482 nM.
In turn, B6 showed an IC50 of 2.89 nM.
The same measure, in the same setting: the value for B5 was 0.3 nM.
